Data as given in the DeepSol protein solubility set.

assay: soluble on expression in E. coli; label from the status in PepcDB or PDB records

Sequence	soluble on expression in E. coli
MNDEDSEERRHHPKVPRLARQSHPEPPGPSSSTSSTPLFTDPTIHTILDQIGQRLASFSESDVKRIKNYLSTVTVTQEACVLLLLPNKEREKLMFAEIERHILENYEYSMIIHRYVNDVLKHAIETQFVNPDKLDESNDAWKDGLKMISEQKMRSSRYTAARARSQRFAIANDSYFPRPEIVPSTDHPVFASRPSVSTQEVRTGRQQIDQEVSGRKREFHGKLIPITGVVEEPSVRINAELQQSETQQIGDSSDQTDTATPISDIATHQDPENEISPSVTEGSNDIADDAGAGDDFSESTTGAVQPEQQASEHSNSEGVEKSSCAESLKEQPDQSSPAVSNTVSENSNTDSEICSGIDQNPNSDNLESTIDVGEPLRNTSDQPSPDPCSDVQIGVNSTTKQSTDPSVNVQLGHKSSDQPSTDPSAHAQLEDNCTIQPSTDPSSNDQLGDNTSDQNSTDPSSDVPMEDPGESGSAASTPPPDWDVAEVPIPQCSGHSDGNIGGTNEVTPPEQEAQVLAPRRSERSRIKNIWLSRDEVERLRYEFVPPPSRKDIPKCTAKKPEAEIPNVEPESSSTVESQRDEDQAVASASSVAEPLEEATTTSVPEPTEFQLSRDIYSTVKPTDEAHSPPIQAQPKKKATPRRKKADDVETVVADGTATIPKPKRKRPPRKKPEPKPNIVFETTPNPPTESFAANNNFQQFQFQNQPGSWTYNNGFGNGYGYGGGTTGYMDNLVGRGFDTVSQQPGFQNQGYEFTGLPANNSNNFPFL	not soluble
NDAIIILNGEKVLDLNKKGREAFGLGARELDNISIGSLLSEKDLPAVRDALKTTLENGSACFEMKFRKQNGEVIDVEVSSSFLSLEEGEIQCVARD	not soluble
MSHPVVIKENMTVYDAICTIFLEDVSTLFITNENNDFVGVCSRKDLLRASMIGEDIHTMPISVNMTRMPHVSYLKEQELVIYAANQMIDKEIDSLPIVRPKENDKFEVIGRISKTTITKLFVSLFKE	not soluble
MSLEFKGELTFEQELALSDMTSKENGLLHAETGFGKTVLGAALISERKTKTIILVHNKQLLDQWLDRLNCFLTFEEEEAIRYTASGREKVIGYVGQYGGTKKWLSKLVDVVMIQSLFKLENSQSLLDEYEMMIVDECHHVSALMFEKVVAQFRGKYLYGLTATPERKNGHEPIVFQRIGEILHTADKRETDFKRQLQLRFTSFGHLEIEKTKASNFIQLSDWIATDSVRNQMILKDILAQVAEGRNILVLVNRIQQIDVFEKLLKEKEVDDCYIISGKTKVRERTSLLETLEQLDKGFVLLSTGKYIGEGFDLPQLDTLILAAPFSWKNNLIQYAGRIHRNYKDKSLVRIFDYVDIHVPYLEKMFQKRQVAYRKMDYRVIEGEGHHHHHH	not soluble
MPAPDLGFALSLPPKKAIEWLESKKVTAESYRNLTASEIAKVYTIARMTDLDMLNDIKTSMVESAKSGQSFDDWRKGILNLLSNKGWLHPNGHNGKDIIDPATGEVFGSPRRLETIYRTNMQTAYNAGQYQGYMANIDARPYWMYDAVGDSRTRPAHSAIDGLVYRYDDPFWATFYPPNGYNCRCSVIALSERDVERQGRIVGQSTADNLVETHKIYNKKGDTYLTLAYKAPDGSLYTTDRGFDYNAGRMNYRPDLDKYDRALAHQFAKAEMGGADFKTSFKQLEKEFYEVKQRLDIDGKPDKEQKIKIRNALSRQLKFAAGVLSKETQELAGMTRATVWLSDDTLVKQVDSREGQNFDDSYYAFLPDMLQNPEHVIRDNRELIFTARYKGSALWAVLKYIKEVDEIYLQSYRISNDKEIAKFMAKKKVLK	not soluble
ATDMWLERAADVSWEAGAAITGTSERLDVQLDDDGDFHLLNDPGVGGGGSGGGGGGVFWDTPSPKVYPKGDTTPGVYRIMARGILGRYQAGVGVMHEGVFHTLWHTTRGAAIMSGEGRLTPYWGNVKEDRVTYGGPWKLDQKWNGVDDVQMIVVEPGKPAINVQTKPGIFKTAHGEIGAVSLDYPIGTSGSPIVNSNGEIIGLYGNGVILGNGAYVSAIVQGERVEEPVPEAYNPEMLKKRQLTVLDLHPGAGKTRRILPQIIKDAIQKRLRTAVLAPTRVVAAEMAEALRGLPVRYLTPAVQREHSGNEIVDVMCHATLTHRLMSPLRVPNYNLFVMDEAHFTDPASIAARGYIATRVEAGEAAAIFMTATPPGTSDPFPDTNSPVHDVSSEIPDRAWSSGFEWITDYAGKTVWFVASVKMSNEIAQCLQRAGKRVIQLNRKSYDTEYPKCKNGDWDFVITTDISEMGANFGASRVIDCRKSVKPTILDEGEGRVILSVPSAITSASAAQRRGRVGRNPSQIGDEYHYGGGTSEDDTMLAHWTEAKILLDNIHLPNGLVAQLYGPERDKTYTMDGEYRLRGEERKTFLELIKTADLPVWLAYKVASNGIQYNDRKWCFDGPRSNIILEDNNEVEIITRIGERKVLKPRWLDARVYSDHQSLKWFKDFAAGKR	soluble
DVDEVLRLCAEGLHDVLGYERVNILMADTARTSLSFVAAVGTADFNPAGVVLPLDQRGGVITKCFTDRQVYMIDDVSAYPTDFRLQSPYDAIRALRSKSFVICPIVVKGEAIGVFAVDNRSSR	not soluble
MNLFYNPKGVGDVAFIQIEPSVGPFEYEQKHGVVEIKKENEVVGYNIFNVSNNVTINDNGHIKLTTELIKDLQQLITEAGFDYQLDTDVSPKFVVGYVETKEKHPNADKLSVLNVNVGTEKLQIVCGAPNVESGQKVVVAKVGAVMPSGMVIKDAQLRGVDSSGMICSMKELNLPNAPKEKGIMVLNDDYDIGQAFFELEHHHHHH	soluble
MSAKPVIVGGGPAGMSAAMELARHGVECVLLDEASRVGGVVYRGPLREGVVLDYLGERYRENMQALHREFEQVRDRIDIRLNTRVVGGGEGELFALTPDERVEAVPFSQLLLAAGCHERSVPFPGWTLPGVIMLGGLQLQIKSGVVKPLGRTVLVGTGPLLPLVACQLHRAGVEVAGVYEASAFGRLAKETIALLNQPQLFLDGLSMVAYLKRHGIPLHYGWGVVEAHGDAELGEVTVAPYDAEWRADLTRSRRLPAQTLAVGYGFIPRTQLTQQMGLEHRYADDGYLKPVNDEWQRSSRGNIHLAGDIGGLRGGEAAMISGRIAALSMLLQLGKLDEQQALRQRQACLDQMASILRFRKGIDSFTRRGRGQLALPARDTVICRCEHATRQDIDTALEQGVNDLISLKMRTRVSMGDCQGKMCVGYCSDRLREHTGKRDVGWIRPRFPLDPLPFSAFSAIDAQQTEEILEHHHHHH	not soluble
AKMLGLDFVAVVPRSTSGAKIALIEAQGGRCHFIDRPPEIYSEARRLAAETNGHFMDQFTHAERATDWRGNNNIAESIYHQMIREEHPVPEWLVMSAGTGGTSATLGRYIRYRRHATRLLVVDPENSAFFGGYDSNSCDYATGMPSRIEGIGRPRVEPSFVGQVIDRMMRVPDAASIATARHASSVLGRRVGGSTGTNLWGAFAVVAEMLAAGRSGSVVTILCDGGERYADTYFDDDWVAGEGIDLTGPAAVLDRFA	not soluble
MSLGSIKDNLSEIRNKIDKAAKKVDRDSKEITLLAVTKTVDVDLVNEAMREGITSVGENKPQELARKYDIIGDKLNWHLIGTLQTNKVKYIIDKVCMIHSLDRIALCEEIQKRAEQINREIDCLVQVNISKEESKHGLDREEVVDFVKEVSEKYKNIKIKGLMTMAPFIEDEDEIRGVFKGLKDLSKQIKELNIPNVGMDVLSMGMSHDYEIAIEEGATIVRVGTSIFGERNYNKEGHHHHHH	soluble
MKILWIDLNSSYAHSSLALPALHAQIMTDPSIEWEIVSATINENTGMIVDEIYRHRPDILAATTWLFNHEQLMHVASRVKALLPEACLVLGGPEFLGDNEEFLRKNPFVDCVFRGEGEEVFPQWLTCWNHPEQWHTVPGLCYLTPNKEYKDNGIARVLNFAGLVPPEQSRFFNWSKPFVQLETTRGCFNTCAFCVSGGEKPVRTLSIESIRERLQLIHAHGIKNVRVLDRTFNYNPRRAKELLRLFLEFHPDIRFHLEIHPALLSEELKEELSLLPKGLLHLEAGIQSLREPVLEKSRRMGKLSDALDGLRFLCALPNMETHADLIAGLPLYHLHEIFEDVRTLAGYAAGEIQLESLKLLPGTEMRRRAEELGIKYSPLPPYEVLQTHEISVSELQTARQLSRLLDGFYNTPAWQALTRELILNDEQFLHRFLAYLTKANLIDQPMSLEKRGLILYEFCKQNYPEYQIQAAIAWIEAGMSLKKLPAEKVWTKRQIPPATWNIIYGEYKESLRLCFLPADEKGEHGYWFGFESEIQKASPVFKART	not soluble
MGSDKIHHHHHHMKKLRELTVEELFESFVLIKNADVRVAKNGKKFIAFTFQDTSGTIDGKYWDASEDEITRFTAGNVVLLNGKREVYQNKPQVKILHMRLATAEEPSQPSLYMERAPLKKEEMVEEINQVIFEITNAHWNRIVRYLMTKYQQEFYEFPAAKRNHHAFANGLAYHTVSMLRLGKAIAKEYTEINTSLLYAGIILHDLGKVLELSGAITTEYTVAGNLIGHLVLVDEEITKACLALKIDDREEDVVVLRHMVLAHHGLLEYGSPVRPRIMEAEILHQIDTMDASIQMMLGAIRQTQPGEYTERIFGLDNRSFYVPKDK	not soluble
MIFLSFKKSFKNITIEGKFTFEKGFNVILGPSGAGKSTVIKVMCGIEKPDEGFMKCCDEVFFDTKKGVFLPPQKRRLGVVFQSHNLFPHMTVRENIEFALKKAKEPQFTVEELLEKFNLKGHENKYPGELSGGQRQRVAVIRAIVFNPRAVLMDEPFSSLDFKTKLSIMEFIKSVHIEKPVIIVTHDLFEALYLGQKFFLMDNGKKVKEGGKEVLKEYVDLEKIKKFLS	soluble
